Test results reported in US20220411840A1, “High Efficiency Template-Free Enzymatic Synthesis of Polynucleotides” (DNA Script, priority 2019, published 2022).
Changes are numbered by the printed parent chain. Names may count otherwise.

B1: M55: ACT-TdT variant: SEQ ID NO: 1 with substitutions A17V+Q37E+D41R+L52F+G57E+M63R+S94R+G98E+A108V+S146E+K147R+Q149R+C173G+M184T+R207L+K209H+M210Q+G284L+E289A+R325V+E328K+N345E+R351K (protein)
chain: NSSPSPVPGSQNVPAPVVKKISQYACQRRTTLNNYNELFTRALDILAENDEFRENEESCLAFRRASSVLKSLPFPITSMKDTEGIPCLGDKVKRIIEEIIEDGESSEVKAVLNDERYKSFKLFTSVFGVGLKTAEKWFRMGFRTLERIRSDKSLRFTQMQKAGFLYYEDLVSGVNRPEAEAVSTLVKEAVVTFLPDALVTMTGGFRLGHQTGHDVDFLITSPEATEDEEQQLLHKVTDFWKQQGLLLYCDILESTFEKFKQPSRKVDALDHFQKCFLILKLDHLRVHSAKSGQQEGKGWKAIRVDLVMCPYDRRAFALLGWTGSVQFKRDLRRYATHERKMMLDEHALYDKTKRVFLEAESEEEIFAHLGLDYIEPWERNA
modifications: truncated mouse TdT
B2: M56: G-TdT variant: SEQ ID NO: 1 with substitutions A17V+Q37E+D41R+L52F+G57E+M63R+I76V+S94R+G98E+A108V+S146E+Q149R+C173G+M184T+R207L+K209H+F259E+Q261R+K265G+G284L+E289A+R325V+E328N+R351K (protein)
chain: B1 chain with I76V, R147K, Q210M, F259E, Q261R, K265G, K328N, E345N
modifications: truncated mouse TdT

Key:
[1] = test system: synGG primer (5′-TGTGAGAGTGAAATGAGG, SEQ ID NO: 7); assay: Incorporation of 3′-O-azidomethyl nucleoside triphosphates (AM-dNTPs) by TdT variants on primer synGG in solution; type: biochemical; conditions: 1 uM primer, 2 uM TdT variant, 80 uM AM-dNTP, 10% DMSO, 5 min at 37° C.
[2] = test system: polyT primer (5′-TTTTTTTTTTTTTTTTTTTT (20T), SEQ ID NO: 8); assay: Incorporation of 3′-O-azidomethyl nucleoside triphosphates (AM-dNTPs) by TdT variants on primer polyT in solution; type: biochemical; conditions: 1 uM primer, 2 uM TdT variant, 80 uM AM-dNTP, 10% DMSO, 5 min at 37° C.

| Molecule | Percentage of AM-dNTP Incorporation (percentage of extended primers) ([1]; AM-dNTP: A) [%] | Percentage of AM-dNTP Incorporation (percentage of extended primers) ([1]; AM-dNTP: C) [%] | Percentage of AM-dNTP Incorporation (percentage of extended primers) ([1]; AM-dNTP: G) [%] | Percentage of AM-dNTP Incorporation (percentage of extended primers) ([1]; AM-dNTP: T) [%] | Percentage of AM-dNTP Incorporation (percentage of extended primers) ([2]; AM-dNTP: A) [%] | Percentage of AM-dNTP Incorporation (percentage of extended primers) ([2]; AM-dNTP: C) [%] | Percentage of AM-dNTP Incorporation (percentage of extended primers) ([2]; AM-dNTP: G) [%] | Percentage of AM-dNTP Incorporation (percentage of extended primers) ([2]; AM-dNTP: T) [%] |
| --- | --- | --- | --- | --- | --- | --- | --- | --- |
| B1 | 74 | 86 | 30 | 76 | 15 | 69 | 12 | 61 |
| B2 | 4 | 68 | 65 | 71 | 0 | 27 | 15 | 52 |
